# Source: the DeepSol protein solubility set
# Experiment: soluble on expression in E. coli; label from the status in PepcDB or PDB records
row,Sequence,soluble on expression in E. coli
1,MNKGQRHIKIREIITSNEIETQDELVDMLKQDGYKVTQATVSRDIKELHLVKVPTNNGSYKYSLPADQRFNPLSKLKRALMDAFVKIDSASHMIVLKTMPGNAQAIGALMDNLDWDEMMGTICGDDTILIICRTPEDTEGVKNRLLELL,soluble
2,MGSDKIHHHHHHMISFFLSDLIKSILNIQDNNISFSEEECCQVTQKGDYLLKVFKGFLKSDYCTCPHCSSKNIVKNGSRHRKIKYIPIQNYNIELELTVQRYICKDCKKNFSPSTNIVSDNSSISNNLKYAIALELQKNISLTSIAKRYNISIPSVQRIMDNCYSDFKVNKKHLPEAICIDEFKSVKNIDGAMSFVFADYQSKSIIDIVEDRRLHSLTEYFSRFSLEARNNVKYICMDMYTSYISLVNSIFPNAKIVLDKFHIVNLVNRAFNQTRISIMNSIQDDSLKRKFKLFWKSLLKYYPDLCQINYYCQSFKRKLSSKLSLRKKP,not soluble
3,MGSDKIHHHHHHMLAALKKYLLVPKLMRLSAGAPRDHHIAWDRFWSNVKTTGASGDVLWDSGSDHEMQGYVDRLRLHLDPGLPIVDIGCGNGSFTRQLAGHFPHAVGVDVSAHAVRRARAETAGLANISYAVADMTASGAGSGLLEELAVLDTGGQAGGGANVFIRGVLHVLGERDQHALAENARAITRANGRVFLAETNFRGNAVDYVTHLGATLRSIPAPLEGAIRGLPMPGRFGPKERSLAFPASRWELIEEGPTTIETMPLSNPARSDLIPGYFAVLEGRN,not soluble
4,MERVKSHFHNRKKVLLARIKDELKTIPSSNQMSTDEKMEELVRRRICIGEYDEQLARVCLDIEDEEKGRTEQFGNEQIQQPMTNLFTETSHQSLLSQLLTSSASQSKSEIPISMSSPMESASSKDSEPQAVISLPTLGATRAPLLSKLLSDPSTSKENGFLLRKEPVRLARAPSAIRNPNVSNYDRKRRAASPYEKSNRLSVLPSPQNQYLSHLIVDVSSPQELKRLLSVLIDHGFSRFQHIGSSDMVASSIRTGIPRAPRLDTVEYSNYEHEPETDEISRDGTPFWSTPIPPTNKELPVSPVSQLDMTNSIKSRVERVDVEVKLEPCNDEDDEFSEEVDEQTAELEEQLATEAIRTGLALFGKVSPSPKRMKSCGSSGSVCGDVVTAICEICGIGIRLNSGGSKWNFFEHVMMKHSTHKPFKCSQCPYQAVRKVRVKQHGQSQHNSEHEPVNMITPEVRKEWLDTMAKCFPNHQYGKEAKI,not soluble
5,MGSDKIHHHHHHMRAHVTKKTLSEGLGLLERVIPSRSSNPLLTALKVEASEAGLTLSGTNLEIDLSYFVPAEVQAPQSFVIPAHLFAQIVRNLGGELVELELTGGELSVRAGGSDFKLQTGDLEAYPPLSFPTHTDVSLDAAELARALGSVRYAASNEAFQAVFRGIKLEHRPASARVVASDGYRVAIRDFPASGDGRNLIVPARSADELIRVLKDGEARFTYGEGLLSVTTDRVRMNLKLLDGEFPDYERVIPKDVKLQVTLPATALKEAVGRVAVLADKNANNRVEFLVSEGKLRLAAEGDYGRAQDTLDVVQGGAEPAMSLAFNARHVLDALGPIEGDAELLFSGSTSPAIFRASGGGDYMAVMVTLRV,not soluble
6,MADEEKVTTEEQALADEWAAALAEAGDASQDDIDALMAQGGATPVAEPSTPRAPMEEFGASPKAPTISGLEGPNLDVILDIPVTISMEVGHTDISIRNLLQLNQGSVIELDRLAGEPLDVLVNGTLIAHGEVVVVNEKFGIRLTDVISPSERIKKLR,not soluble
7,MGSSHHHHHHSSGLVPRGSTYKLTLIRHGESEWNKENRFTGWTDVSLSEQGVSEAIEAGRMLLEKGFKFDVVYTSVLKRAIMTTWTVLKELGNINCPIINHWRLNERHYGALQGLNKSETASKFGEDQVKIWRRSFDVPPPVLEKSDPRWPGNELIYKGICPSCLPTTECLKDTVERVKPYFEDVIAPSIMSGKSVLVSAHGNSLRALLYLLEGMTPEQILEVNIPTACPLVLELDDYLKVTKKYYLISEEELKAKMEAVANQGKAK,soluble
8,MSNENHEELNDQLIVRREKVDTLREEGIDPFGEKFIRSISPEEIETKFADKSKEELEEAAIEVSVAGRIMTKRVKGKVGFTHIQDRFHQLQIYIRKDAIGEDAYAVFKLADLGDIIGIKGTIFRTNTGELSVKATEFTLLSKSLRPLPDKYHGLKDVEQRYRQRYLDLITNEESQNRFVMRSKILKYTRDYMDNQGFLEVETPVLHTIAGGAAAKPFITHHNALDMELYLRIALELHLKRLIVGGMDKVYEIGRVFRNEGTSTRHNPEFTMLESYAAYEDYEDVMDLVEGLVSTVCKQVNGTTEITYGEYKVDLTPNWRRIHMADAVKEYVGVDFWNVTSDEEARELAKKHDVPVTEHMTYGHILNEFFETYVEEKLIQPTFVYGHPVEISPLAKKNKEDERFTDRFELFIVGREHANAFSELNDPIDQRERFEAQMKEREQGNDEAHGMDADFLEALEYGLPPTGGLGIGIDRLVMLLTDAPSIRDILLFPTMKHRD,not soluble
9,MGSDKIHHHHHHMVSWVRGATKSLLGCSENSRRTKGNDMAVIFKGIPSIGNGLTDDTVLWRYLDTAKFLDLLHNRTLFFCRGDRFADKYEGAFTESIKHAIEEAFRKNEINSSVAEFKTRLRERVFVNCWHQSRDDSMAMWSLYGKSSAAVAITTTVGQLRDAIKLAKLPYAINIAKVEYVKHWRDPQLVFKPYSNVFAYKLKAYDYEKEVRVIIDRFHENEDISALPDGMSAAIPLETLLRSIVVCPEAAPWFVELVGDVVHKYGVSAPVNRSKLAFDPK,not soluble
10,MSFQNQFTKTTTDANLMETVHHGSAEYPFRYYYENIALFDFKCIDWHWHSELEFIYIESGNVVFDIGTVHFELNEGNGIMINSKILHRLQSSSDAIIPNFLFQPSFIAPQDSLIYKKYINPVISSSLEYLVFQPDIPWQKKALEIIKTIIAVQETEFNREIIVSMSVQQLWILLLENLTFDQFENMGAVISRTRLQLMMQYVHAHYSENITLEDIARTANISKSTALHLFQNNLKLTPVKYLINYRLTQAALLLINTEEKIATISNNTGFNNVDHFCRTFKKTYKMTPTDYRNQERAPVS,not soluble
11,MEFLKLSEGKTKEVYAYDDSHVLLKFKDSITAGDGARKDILEGKGILNAQTSAFLFRLLESKGIETHYIGMFDERTMIAKKLKMIPVEVVLRNIATGSIVKRLPIKEGEVFEPPIIEFFLKDDERHDPMLNYYHMEYLKLMTRKEAEKIEEIMLKVNEILYPFFRSKKLLLYDFKLEFGRVNDKLIIGDELTLDSMRIREEGSGRILDKDLYRKGADLETVKKAYEEFFKRISE,soluble
12,MPRKRSVALAAWGEEGLLLVLRPQDDPEFPGAWGLPAVSLQGEETLEEAALRVAREKLGAEVAEAGPIAFGVEERPGYTLELWVYEGRLLGRPRLPEPKPGKTYYAAFRFGRPEELKAAARQGSLCSRLFLAVKGLCP,soluble
13,MAHHHHHHSLISNHFLRDLYAIIVDDVGRFKPSAILDVGCGTGTADYFILSAFPDISVDCIDPSPYMISIARKKLSKFGSRVRAELGSSRSIPFDRRYDFVFTSISFHHWKCREDGLRNMAKYVSDHGVLAVYEYYRPNLRSFHRVAGKHALTMEDVEKLNIEGFTKKYEIRGEMMRIMFQRDEG,soluble
14,MLIDDIDFADLYLQQLKLAHRTEKTPDHWDQRAEKMAENCASPTDSYLQQLIAKIDLQGAQTLFDMGCGPGTVSLALADKLTTVYGVDYSQGMLNVAARRAAALKADNVHWIQRAWEEDWSDLPRCDIAVASRSTLVADMRHAMSKLNNQARLRVYTTHLVSTSFVSPAIQRAAGREVIELPNYIFALNVLYQMGIYAHVDFIRGQNCQQDNSTWERFEQNVSWSLGALNDDERERLYHWYQQQDARALAPASRDWALIWWDSVPQEAL,not soluble
15,MKLGVVTRKGKRQDDIRMFSQFFEVKVYEIPEELPELIDEPAEILRLPDDFDVDMIVSFAAHPDINLELIKQAAERGIGLVIISGGAKGGAYKQLKEEGEKRGVRVVWEEICCATPKVEDERTREFFEHFGAPEVEVEVENGKVKDVRVKRSAFCGATYYVAEKIKGLSVEEAPTKAGYYTQIYPCLAPRGHEGGIHKAARAHKRAVEKAIEKSK,not soluble
16,MAHHHHHHMRKVKKNKQVRNMLKSLTERVDTDDGENEYARLTQTPVVKMNLSKVKLKTSLQSVLVEPYTEKVKDFVAKTNYEISMEKTLLDEIKNANQNMDRIGDVLSARGGKQRKTRDNHHIMGRYFHYLRDKNEDFGLSFFPVYKTFKSNFSHFSDNLNSSLYPHELLEMGSMSSGNFLKNSSKRISFPERGDS,not soluble
17,SMSDVTIVKEGWVQKRGEYIKNWRPRYFLLKTDGSFIGYKEKPQDVDLPYPLNNFSVAKCQLMKTERPKPNTFIIRCLQWTTVIERTFHVDTPEEREEWTEAIQAVADRLQRQEEERMN,soluble
18,SKNFNYTISFVGSTSNNKFVSFSNQFYEGPKYYWMSNFPLYPGNPGVLQRIEEGERIGNFYTFQYAGLDDNGGWLIYSKDGEVIPIDKGTDEDKRVVGNGLPKFTMSVTHTFRCKNLDLNLYFRGNLGYQIYDVHDLYYGLQDAAPNTNVLESAYKENRKITTGKNVHSSYFVHNGDFMKLDVATLGYTWNINNKWVEKARFYITGRNLFTISGYHRGLDKDAYCVNGMEPGLPYSKNGYYPSSRQFLFGIQLNF,not soluble
19,SQEKVSIEQQLAVESIRKFLNSKTSYDVLPVSYRLIVLDTSLLVKKSLNVLLQNSIVSAPLWDSKTSRFAGLLTTTDFINVIQYYFSNPDKFELVDKLQLDGLKDIERALGVDQLDTASIHPSRPLFEACLKMLESRSGRIPLIDQDEETHREIVVSVLTQYRILKFVALNCRETHFLKIPIGDLNIITQDNMKSCQMTTPVIDVIQMLTQGRVSSVPIIDENGYLINVYEAYDVLGLIKGGIYNDLSLSVGEALMRRSDDFEGVYTCTKNDKLSTIMDNIRKARVHRFFVVDDVGRLVGVLTLSDILKYILLGS,soluble
20,MGSDKIHHHHHHMTNKTNAASLDIVGIGNAIVDVLTTTDDSFLKKLSFDKGSMTLIDEKKAKELYEMTTNRIQKSGGSVANSLACVAQLGGKAAFIGRVRDDKLGEIFTEEISTTGTIFKTPPSSVGPSTARCIIFVTPDAQRTMCTYLGASVLLEPKDIDLSLVREAKILYLEGYLWDNPAAKNAFIKAAEIAKNAGRKVALSLSDSFCVSRHRESFIKLVEEHIDILFANEDEITNLYETSSLSNALEKLKKKCDLAAITIGEKGSILISNGKEIKIDPFILGKAIDTTGAGDLYAGAFLKGYADGLKPELSAKIGSICAGQIVTQLGSRSNTDLLNLINSHLEA,not soluble
21,GSMLISHSDMNQQLKSAGIGFNATELHGFLSGLLCGGLKDQSWLPLLYQFSNDNHAYPTGLVQPVTELYEQISQTLSDVEGFTFELGLTEDENVFTQADSLSDWANQFLLGIGLAQPELAKEKGEIGEAVDDLQDICQLGYDEDDNEEELAEALEEIIEYVRTIAMLFYSHFNEGEIESKPVLH,soluble
22,MSTGKIQFAEQNGSFVLKFVGEVRLTLCSALDSTIEKIFAALNFSAIIIDLTETQSIDSTTLGLLAKLSILSRQKIGLLPTLVTTNPDITRLLQSMGFDQVFNIVDRPIPCPECLSDLPPQDQSEDVVRDKVLEAHRILMGLNESNREAFHDLVSALERH,not soluble
23,FRVERSQPASQPLTYESGPDEVRAWLEAKAFSPRIVENLGILTGPQLFSLNKEELKKVCGEEGVRVYSQLTMQKAFLEKQQSGSEL,soluble
